{
  "source": "paper PMC3885797",
  "about": "(2014)",
  "molecular_target": "T1, 6xHis-CTNNBL1Δ76 (human, UniProt Q8WYA6 77-563)",
  "T1 chain": "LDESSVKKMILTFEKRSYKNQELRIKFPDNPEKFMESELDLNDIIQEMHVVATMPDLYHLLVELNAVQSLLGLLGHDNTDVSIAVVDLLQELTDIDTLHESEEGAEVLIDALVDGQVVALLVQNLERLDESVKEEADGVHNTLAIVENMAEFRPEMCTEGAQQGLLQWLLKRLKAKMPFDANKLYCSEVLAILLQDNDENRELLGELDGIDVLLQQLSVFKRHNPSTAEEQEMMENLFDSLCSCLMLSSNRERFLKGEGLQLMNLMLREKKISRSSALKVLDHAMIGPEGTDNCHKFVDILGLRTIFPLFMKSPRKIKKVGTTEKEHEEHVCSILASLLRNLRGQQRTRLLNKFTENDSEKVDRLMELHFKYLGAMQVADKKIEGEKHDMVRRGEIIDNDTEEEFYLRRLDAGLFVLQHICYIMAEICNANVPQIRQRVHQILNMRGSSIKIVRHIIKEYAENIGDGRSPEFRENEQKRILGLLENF",
  "experiment": "ITC; second site",
  "data": [
    {"binder": "KKRKRKR (Limits are the UniProt region required for CTNNBL1 interaction (200-206), taken as the NLS3 core; the assayed peptide is shown only in Fig. 4B and may have longer flanks)", "note": "[CDC5L NLS3 peptide]", "values": [
      {"measurement": "Kd", "value": "~4", "unit": "µM"}
    ]},
    {"binder": "RKKRGGRRYRKMKE (Limits are the UniProt NLS motif (351-364); the exact peptide is shown only in Fig. 4B and may have different flanks)", "note": "[Prp31 NLS peptide]", "values": [
      {"measurement": "Kd", "value": "~12", "unit": "µM"}
    ]}
  ]
}
